# B1: His-tagged recombinant mouse LDLR (receptor)
# chain: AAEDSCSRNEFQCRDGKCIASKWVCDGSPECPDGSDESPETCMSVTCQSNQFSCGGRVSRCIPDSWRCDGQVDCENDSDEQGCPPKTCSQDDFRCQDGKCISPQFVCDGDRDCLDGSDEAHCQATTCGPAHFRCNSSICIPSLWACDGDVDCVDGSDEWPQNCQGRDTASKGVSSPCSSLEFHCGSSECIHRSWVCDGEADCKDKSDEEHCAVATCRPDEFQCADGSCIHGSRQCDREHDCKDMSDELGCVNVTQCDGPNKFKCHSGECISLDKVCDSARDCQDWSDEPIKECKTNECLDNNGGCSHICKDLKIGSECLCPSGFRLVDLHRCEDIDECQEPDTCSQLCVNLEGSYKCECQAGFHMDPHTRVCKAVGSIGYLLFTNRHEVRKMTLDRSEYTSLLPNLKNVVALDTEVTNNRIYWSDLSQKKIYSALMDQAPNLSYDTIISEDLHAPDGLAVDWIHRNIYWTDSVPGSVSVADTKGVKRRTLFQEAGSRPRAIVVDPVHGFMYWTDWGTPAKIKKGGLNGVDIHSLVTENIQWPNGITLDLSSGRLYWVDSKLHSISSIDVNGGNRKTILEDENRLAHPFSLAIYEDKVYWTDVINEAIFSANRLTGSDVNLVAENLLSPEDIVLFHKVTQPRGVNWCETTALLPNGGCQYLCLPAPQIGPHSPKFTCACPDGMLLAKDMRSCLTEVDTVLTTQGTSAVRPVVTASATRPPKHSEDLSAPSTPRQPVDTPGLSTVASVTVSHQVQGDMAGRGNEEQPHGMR
# Target: Fc(A680)-VH4127 conjugate (human, UniProt P01857 = IgG part, Alexa Fluor 680 (degree of labelling 1.7); H-PEG6-VH4127-NH2 joined enzymatically by microbial transglutaminase to the C-terminus of the Myc-tagged Fc | non-natural amino acid residues (not given); …)
# Assay: SPR
binder,measurement,value
B1,koff,0.000236 s⁻¹
